We go through eleven molecules from patent US7132274B2, “Method for identifying modulators of CLK-1 and UbiF activity” (priority 2003, dated 2006).

B1: CDB 700: C. elegans CLK-1 variant, mutation C107A/C177A (protein, UniProt P48376 9-187, looked up, variant C107A C177A)
NADPH-dependent …: AHTAASRQALIEKIIRVDHAGELGADRIYAGQLAVLQGSSVGSVIKKMWDEEKEHLDTMERLAAKHNVPHTVFSPVFSVAAYALGVGSALLGKEGAMAATIAVEELIGQHYNDQLKELLADDPETHKELLKILTRLRDEELHHHDTGVEHDGMKAPAYSALKWIIQTGAKGAIAIAEKI
B2: CDB 721: C. elegans CLK-1 variant, mutation Y37A (protein, UniProt P48376 9-187, looked up, variant Y37A)
NADPH-dependent …: B1 NADPH-dependent … with Y29A, A99C, A169C
B3: CDB 728: C. elegans CLK-1 variant, mutation E112A (protein, UniProt P48376 9-187, looked up, variant E112A)
NADPH-dependent …: B1 NADPH-dependent … with A99C, E104A, A169C
B4: CDB 716: C. elegans CLK-1 variant, mutation H118A (protein, UniProt P48376 9-187, looked up, variant H118A)
NADPH-dependent …: B1 NADPH-dependent … with A99C, H110A, A169C
B5: CDB 719: C. elegans CLK-1 variant, mutation H63A (protein, UniProt P48376 9-187, looked up, variant H63A)
NADPH-dependent …: B1 NADPH-dependent … with H55A, A99C, A169C
B6: CDB 726: C. elegans CLK-1 variant, mutation G32D (protein, UniProt P48376 9-187, looked up, variant G32D)
NADPH-dependent …: B1 NADPH-dependent … with G24D, A99C, A169C
B7: CDB 724: C. elegans CLK-1 variant, mutation E62L (protein, UniProt P48376 9-187, looked up, variant E62L)
NADPH-dependent …: B1 NADPH-dependent … with E54L, A99C, A169C
B8: CDB 723: C. elegans CLK-1 variant, mutation E148K/L149N (protein, UniProt P48376 9-187, looked up, variant E148K L149N)
NADPH-dependent …: B1 NADPH-dependent … with A99C, E140K, L141N, A169C
B9: CDB 725: C. elegans CLK-1 variant, mutation E147A/H151Q, less active than wild type (protein, UniProt P48376 9-187, looked up, variant E147A H151Q)
NADPH-dependent …: B1 NADPH-dependent … with A99C, E139A, H143Q, A169C
B10: CDB 720: C. elegans CLK-1 variant, mutation E30A (protein, UniProt P48376 9-187, looked up, variant E30A)
NADPH-dependent …: B1 NADPH-dependent … with E22A, A99C, A169C
B11: Saccharomyces pombe coq7: yeast orthologue of clk-1 (protein, UniProt O74826 28-216, looked up)
5-demethoxyubiquinone …: ISMGRKELSEKDSNILDSVIRVDQAGELGANQIYKGQHFILQFTDPKVAPTIQHMWDQEKYHLATFDNYVLKNRVRPTFLRPFWDIAGFALGAGTALLGTKAAMACTEAVETVIGGHYNDQLRETAHLENKAPEFKEIRSHLAEFRDDELEHLNTAVEGWNAKEAPAHALLTNAIQMGCKAAIWMCKRF

Changes are numbered by the printed parent chain. Numbers in names are those of the source. Active and inactive are the words of the source; unless stated, no cut-off is given here.

One test concerns E. coli JF496 (ubiF411). Kind of test: JF496 complementation (growth rescue) assay. It is filed as cell-based. Particulars: C. elegans CLK-1 variants expressed in JF496; growth rate relative to wild type CLK-1. From the text: JF496 is useful for complementation assays using eukaryotic clk-1. As with all other ubi mutants, JF496 has a weak growth in liquid culture, and cannot use succinate as a unique carbon source. These characteristics were used to develop a gain-of-function assay, where JF496 was transformed with a eukaryotic clk-1 (here from C. elegans) and then wild-type growth was identified. Transgenic E. coli ubiF (Kwon et al., 2000 FEMS Microbiol Lett, 186, 157–161), and clk-1 from proteobacteria (Stenmark et al., 2001 J Biol Chem, 276, 33297–33300) have been tested in JF496.
Growth conditions—For complementation assays, plasmids are freshly transformed by electroporation into E. coli JF496 ubiF(DE3) and grown overnight at 37° C. in 5 mL LB with 50 μg/mL ampicillin. The cultures are diluted 1/10 and OD600 measured. A bacterial volume corresponding to an OD600 of 0.03 in 5 mL is taken, centrifuged and resuspended in 100 μl of M9 medium. It is then added into 5 mL M9 containing 1 mM MgSO4, 20 μM CaCl2, 0.5 μg/mL thiamine, 0.12% casamino acids, 40 μg/mL D-L-methionine, 100 μg/mL L-asparagine, trace metals and 50 μg/mL ampicillin. This medium is supplemented with 0.5% glucose or 0.5% succinate. E. coli JF496 is grown at 37° C. for 8 hours. Samples (700-μL) are taken at 2-hour intervals and the OD600 is measured in order to determine the growth rate.
Growth conditions—as described above in Section 6.1
A selection of CLK-1 variants were constructed by site-directed mutagenesis and cloned into the JF496 system to assess their enzymatic activity relative to the wild type. The respective strains of JF496-clk-1 variants were cultured as described and the growth rate of each were measured. The results as shown in Table 4 indicate that certain residues and regions are not tolerant of amino acid substitution (amino acid substitution is indicated by one-letter codes).
Take B1: the “Activity in JF496 system” value is “Active”.
B2: the “Activity in JF496 system” value is recorded as “Active”.
Still for that read-out and setting: as for B3, the entry is “Inactive”; as for B4, “Inactive”; as for B5, “Inactive”.
On the same count and under the same terms, as for B6, the entry is “Inactive”; as for B7, “Active”.
The same measure, in the same setting: as for B8, the entry is “Inactive”; as for B9, “Partially active”.
For B10, the “Activity in JF496 system” value is recorded as “Inactive”.

Another test deals with E. coli JF496 (ubiF411).
Assay: not given
As to conditions: yeast orthologue of clk-1; cited from earlier work.
As for B11, the “complementation of UbiF-deficiency in JF496 bacteria” value is listed as “cannot complement”.
